According to patent publication US20230399394A1 (SUNSHINE GUOJIAN PHARMACEUTICAL SHANGHAI, published 2023):

What was measured:
[1] = target: T1, IL-33 mutant protein S52A (human, UniProt O95760 112-270); assay: ELISA as Example 9; row S52A
T1 construct: Prokaryotic expression
T1 chain: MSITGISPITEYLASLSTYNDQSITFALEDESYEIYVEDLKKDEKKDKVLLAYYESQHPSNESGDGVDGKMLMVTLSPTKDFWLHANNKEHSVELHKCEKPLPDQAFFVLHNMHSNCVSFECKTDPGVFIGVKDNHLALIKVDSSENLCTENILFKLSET
Procedure: (§1) SA protein was diluted to 2 μg/mL to coat ELISA plate at 100 μL/well overnight at 4° C. The plate was washed with PBST (PBS containing 0.05% Tween20) for 3 times, and blocked with 2% BSA prepared in PBS at 200 μL/well, at room temperature for 2 h. After the plate was washed twice with PBST, IL-33-his-biotin protein was diluted to 1 μg/mL with 1% BSA prepared in PBST, and was added to ELISA plate at 100 μL/well. The plate was incubated at room temperature for 1 h, and each monoclonal antibody was diluted with 1% BSA prepared in PBST in a 3-fold gradient. The highest concentration of antibody was 10 μg/mL, and the antibody was diluted for 12 gradients. Each diluted monoclonal antibody was added to ELISA wells with 100 μL/well, and the plate was incubated at room temperature for 1 h. Each sample was added to duplicate wells in parallel. The plate was washed with PBST for 3 times, and HRP-anti human IgG Fc secondary antibody prepared with PBST was diluted at an appropriate ratio, and was added to ELISA wells at 100 μL/well. […] Each reaction solution was shaken uniformly and OD450 nm was read on a microplate reader. The data was analyzed and EC₅₀ was calculated.
(§2) Subsequently, according to the experimental method of Example 9, the affinity of the above mutant proteins to 874F7-Hu1 was determined, and IL-33 proteins (WT-1, WT-2, WT-3, and WT-4) without any mutation were set as controls.

[2] = target: T2, IL-33 mutant protein D65A (human, UniProt O95760 112-270); assay: ELISA by the method of Example 9 with the IL-33 mutant protein on the plate, 874F7-Hu1 in serial dilution, HRP anti-human IgG Fc, absorbance 450 nm
T2 construct: Prokaryotic expression
T2 chain: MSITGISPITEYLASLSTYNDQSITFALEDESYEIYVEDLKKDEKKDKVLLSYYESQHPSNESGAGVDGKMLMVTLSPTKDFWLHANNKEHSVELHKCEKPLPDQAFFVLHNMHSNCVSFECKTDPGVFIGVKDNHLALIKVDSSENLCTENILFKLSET

[3] = target: T2, IL-33 mutant protein D65A; assay: ELISA as Example 9; row D65A
Procedure: as §1, §2

[4] = target: T3, IL-33 protein without any mutation (WT) (human, UniProt O95760 112-270); assay: ELISA as Example 9; row WT-3
T3 construct: Control of the alanine scan (four runs WT-1 to WT-4); also called WT-1; WT-2
T3 sequence: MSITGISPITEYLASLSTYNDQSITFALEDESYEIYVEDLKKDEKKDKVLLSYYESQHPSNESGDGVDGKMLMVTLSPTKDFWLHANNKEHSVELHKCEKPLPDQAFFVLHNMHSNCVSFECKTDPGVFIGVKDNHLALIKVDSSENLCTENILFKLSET
Procedure: as §1, §2

Human IL-33-his [5] = target: T4, Human IL-33-his (human, UniProt O95760 112-270, biotinylated with EZ-Link NHS-Biotin where used as IL-33-his-biotin); assay: cell-based or functional assay
T4 sequence: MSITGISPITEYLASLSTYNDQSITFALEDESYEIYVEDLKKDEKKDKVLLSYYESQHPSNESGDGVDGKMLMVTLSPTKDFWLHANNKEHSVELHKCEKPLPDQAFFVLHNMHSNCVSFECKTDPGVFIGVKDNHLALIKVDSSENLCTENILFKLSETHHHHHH

[6] = target: T5, IL-33 mutant protein Q57A (human, UniProt O95760 112-270); assay: ELISA as Example 9; row Q57A
T5 construct: Prokaryotic expression
T5 chain: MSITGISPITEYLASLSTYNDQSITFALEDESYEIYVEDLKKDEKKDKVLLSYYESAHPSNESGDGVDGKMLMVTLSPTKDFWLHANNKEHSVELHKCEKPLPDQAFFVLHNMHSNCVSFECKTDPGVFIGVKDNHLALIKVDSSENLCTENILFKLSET
Procedure: as §1, §2

[7] = target: T6, IL-33 mutant protein D68A (human, UniProt O95760 112-270); assay: ELISA as Example 9; row D68A against WT-3
T6 construct: Prokaryotic expression
T6 chain: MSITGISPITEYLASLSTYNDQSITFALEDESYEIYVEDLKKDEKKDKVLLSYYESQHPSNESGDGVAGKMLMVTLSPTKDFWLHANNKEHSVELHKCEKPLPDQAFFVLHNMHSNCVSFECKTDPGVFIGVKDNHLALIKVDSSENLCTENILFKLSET
Procedure: as §1, §2

Human IL-33-his [8] = target: T4, Human IL-33-his; assay: competition ELISA, antibody mixed with IL-33-his-biotin, ST2 on plate; competitor ST2
Procedure: ST2 is the only receptor for IL-33 that has been discovered so far. As a cytokine, IL-33 exerts its physiological function depending on ST2 signaling pathway, and the blocking activity of antibody can reflect the neutralizing activity thereof. The specific method was as follows: the plate was coated with 2 μg/ml ST2 PBS solution at 4° C. overnight; the plate was washed with PBST for 3 times, then the plated was blocked with 5% skim milk powder at 37° C. for 2 hours; the plate was washed with PBST for 3 times for later use. 20 ng/ml IL-33-his-biotin antigen diluted by 1% BSA was mixed with antibodies to be tested diluted by gradient with 1% BSA at 1:1 equal volume and incubated at 37° C. for […]. The mixture was added to a pre-coated ST2 plate and incubated at 37° C. for 1 h. The plate was washed with PBST for 3 times. HRP-labeled streptavidin secondary antibody was added at 1:8000 and incubated at 37° C. for 0.5 hours. After washing the plate with PBST for 3 times, the plate was patted on the absorbent paper to remove residual droplets as far as possible. 100 μl TMB was added to each well, and the plate was placed at room temperature (20±5° C.) for 5 minutes away from light; 50 μl 2M H₂SO₄ terminating solution was added to each well to terminate the substrate reaction. OD values were read at 450 nm on the microplate reader.

Binder	EC50 [1] [nM]	EC50 (read off the curve) [2] [nM]	EC50 [3] [nM]	EC50 [4] [nM]	IC50 of inhibition of IFNγ secretion by NK cells induced by IL-33 (Human IL-33-his [5]) [nM]	IC50 of inhibition of IL-5 secretion of KU812 cells induced by IL-33 (Human IL-33-his [5]) [nM]	IC50 of inhibition of IL-13 secretion of KU812 cells induced by IL-33 (Human IL-33-his [5]) [nM]	IC50 of the inhibitory effect on IL-6 expression in HUVEC cells induced by IL-33 (Human IL-33-his [5]) [nM]	IC50 of the inhibitory effect on the IFN-γ secretion of PBMC induced by IL-33 (Human IL-33-his [5]) [nM]	EC50 [6] [nM]	Affinity decline ratio [7] [fold]	IC50 (Human IL-33-his [8]) [nM]	IC50 of inhibition of IL-33-induced IL-6 expression in HUVEC cells (Human IL-33-his [5]) [nM]	IC50 of inhibition of IL-33-induced IL-8 expression in HUVEC cells (Human IL-33-his [5]) [nM]
874F7-Hu1 (antibody, human IgG4 S228P, kappa, also called 874F7-Hul; humanized antibody 874F7-Hu1) heavy: not shown light: DIQMTQSPSSVSASVGDRVTITCLASQTIGAWLAWYQQKPGKSPKLLIYAATRLADGVPSRFSGSGSGTDFTLTISSLQPEDFATYYCQQLDSSPYTFGQGTKVEIKRTVAAPSVFIFPPSDEQLKSGTASVVCLLNNFYPREAKVQWKVDNALQSGNSQESVTEQDSKDSTYSLSSTLTLSKADYEKHKVYACEVTHQGLSSPVTKSFNRGEC	1.96	~2	35.3	0.18	0.742	7.83	5.22	0.051	0.85	0.12	1.2	–	–	–
874F7 (antibody, V domains shown, Murine hybridoma antibody purified on Protein G; also called murine antibody 874F7) VH: QVQLKESGPGLVAPSHSLSITCNVSGFSLSKYGVHWIRQIPGRGLDWLGVLRAGGSTGYNSALMSRLSISKDSSKSQVFLKMNDLRTDDTAVYFCVRDHYYYSSYGGFVYWGQGTLVTVSA VL: DIQMTQSPASQSASLGESVTITCLASQTIGAWLAWYRQQPGKSPQLLIYAATRLADGVPSRFSGSGSGTEFSFKINNLQAEDFVSYYCQQLDSSPYTFGGGTRLEM	–	–	–	–	–	–	–	–	–	–	–	0.9	0.65	0.35
